B1: STAT5B (unphosphorylated, wild-type), fluorophore fusion [not stated] / STAT5A (unphosphorylated, wild-type), fluorophore fusion [not stated] (parent complex)
chain 1: MAVWIQAQQLQGEALHQMQALYGQHFPIEVRHYLSQWIESQAWDSVDLDNPQENIKATQLLEGLVQELQKKAEHQVGEDGFLLKIKLGHYATQLQNTYDRCPMELVRCIRHILYNEQRLVREANNGSSPAGSLADAMSQKHLQINQTFEELRLVTQDTENELKKLQQTQEYFIIQYQESLRIQAQFGPLAQLSPQERLSRETALQQKQVSLEAWLQREAQTLQQYRVELAEKHQKTLQLLRKQQTIILDDELIQWKRRQQLAGNGGPPEGSLDVLQSWCEKLAEIIWQNRQQIRRAEHLCQQLPIPGPVEEMLAEVNATITDIISALVTSTFIIEKQPPQVLKTQTKFAATVRLLVGGKLNVHMNPPQVKATIISEQQAKSLLKNENTRNDYSGEILNNCCVMEYHQATGTLSAHFRNMSLKRIKRSDRRGAESVTEEKFTILFESQFSVGGNELVFQVKTLSLPVVVIVHGSQDNNATATVLWDNAFAEPGRVPFAVPDKVLWPQLCEALNMKFKAEVQSNRGLTKENLVFLAQKLFNNSSSHLEDYSGLSVSWSQFNRENLPGRNYTFWQWFDGVMEVLKKHLKPHWNDGAILGFVNKQQAHDLLINKPDGTFLLRFSDSEIGGITIAWKFDSQERMFWNLMPFTTRDFSIRSLADRLGDLNYLIYVFPDRPKDEVYSKYYTPVPCESATAKAVDGYVKPQIKQVVPEFVNASADAGGGSATYMDQAPSPAVCPQAHYNMYPQNPDSVLDTDGDFDLEDTMDVARRVEELLGRPMDSQWIPHAQS
chain 2: MAGWIQAQQLQGDALRQMQVLYGQHFPIEVRHYLAQWIESQPWDAIDLDNPQDRAQATQLLEGLVQELQKKAEHQVGEDGFLLKIKLGHYATQLQKTYDRCPLELVRCIRHILYNEQRLVREANNCSSPAGILVDAMSQKHLQINQTFEELRLVTQDTENELKKLQQTQEYFIIQYQESLRIQAQFAQLAQLSPQERLSRETALQQKQVSLEAWLQREAQTLQQYRVELAEKHQKTLQLLRKQQTIILDDELIQWKRRQQLAGNGGPPEGSLDVLQSWCEKLAEIIWQNRQQIRRAEHLCQQLPIPGPVEEMLAEVNATITDIISALVTSTFIIEKQPPQVLKTQTKFAATVRLLVGGKLNVHMNPPQVKATIISEQQAKSLLKNENTRNECSGEILNNCCVMEYHQATGTLSAHFRNMSLKRIKRADRRGAESVTEEKFTVLFESQFSVGSNELVFQVKTLSLPVVVIVHGSQDHNATATVLWDNAFAEPGRVPFAVPDKVLWPQLCEALNMKFKAEVQSNRGLTKENLVFLAQKLFNNSSSHLEDYSGLSVSWSQFNRENLPGWNYTFWQWFDGVMEVLKKHHKPHWNDGAILGFVNKQQAHDLLINKPDGTFLLRFSDSEIGGITIAWKFDSPERNLWNLKPFTTRDFSIRSLADRLGDLSYLIYVFPDRPKDEVFSKYYTPVLAKAVDGYVKPQIKQVVPEFVNASADAGGSSATYMDQAPSPAVCPQAPYNMYPQNPDHVLDQDGEFDLDETMDVARHVEELLRRPMDSLDSRLSPPAGLFTSARGSLS

Variants of: B1
Assay: co-localization assay (quantitative fluorescence microscopy in HeLa cells); bait S5A-NES, test S5B-L82A; 27 cells (parent 17 cells); parent: 0.97

Variant | screen value
chain 1 L82A | 0.65
